{"source": "paper PMC12440825", "about": "“SNARE disassembly requires Sec18/NSF side loading” (Nature Structural & Molecular Biology, 2025)", "binders": {"B1": {"name": "Snc1 (1–93) (domain or fragment, S. cerevisiae, UniProt P31109 1-93, looked up)", "chain": "MSSSTPFDPYALSEHDEERPQNVQSKSRTAELQAEIDDTVGIMRDNINKVAERGERLTSIEDKADNLAVSAQGFKRGANRVRKAMWYKDLKMK", "notes": "Snc1, S. cerevisiae synaptobrevin-like SNARE, residues 1-93; source: E. coli BL21(DE3), purified (Ni-NTA, TEV, ion exchange, SEC); not shown: His6, N-terminal, cleaved"}, "B2": {"name": "Sec9 (401–651) (domain or fragment, S. cerevisiae, UniProt P40357 401-651, looked up)", "chain": "QRGYKTFEEIQKEEEARQQQEEDEAVDEIKQEIKFTKQSSVASTRNTLKMAQDAERAGMNTLGMLGHQSEQLNNVEGNLDLMKVQNKVADEKVAELKKLNRSILAVHVSNPFNSKRRRREREEQLKNRKIEEKLMREQTSQQLSQSTQRIEGAMNANNNISEVRERYQRKNVLEKAKRYQFENDEEDDEMELEIDRNLDQIQQVSNRLKKMALTTGKELDSQQKRLNNIEESTDDLDINLHMNTNRLAGIR", "notes": "Sec9, S. cerevisiae SNAP25-like SNARE, residues 401-651; source: E. coli BL21(DE3), purified (Ni-NTA, TEV, MonoS, SEC); not shown: His6, N-terminal, cleaved"}, "B3": {"name": "Sso1 (1–265) (domain or fragment, S. cerevisiae, UniProt P32867 1-265, looked up)", "chain": "MSYNNPYQLETPFEESYELDEGSSAIGAEGHDFVGFMNKISQINRDLDKYDHTINQVDSLHKRLLTEVNEEQASHLRHSLDNFVAQATDLQFKLKNEIKSAQRDGIHDTNKQAQAENSRQRFLKLIQDYRIVDSNYKEENKEQAKRQYMIIQPEATEDEVEAAISDVGGQQIFSQALLNANRRGEAKTALAEVQARHQELLKLEKSMAELTQLFNDMEELVIEQQENVDVIDKNVEDAQLDVEQGVGHTDKAVKSARKARKNKIR", "notes": "Sso1, S. cerevisiae syntaxin-like SNARE, residues 1-265 (Habc domain, linker, SNARE domain; no transmembrane domain); also called SNARE Sso1; source: E. coli BL21(DE3), purified (Ni-NTA, TEV, ion exchange, SEC); not shown: His6, N-terminal, cleaved"}, "B4": {"name": "Sec18 (recombinant, complete coding sequence) (enzyme, S. cerevisiae, UniProt P18759 1-758, looked up)", "chain": "MFKIPGFGKAAANHTPPDMTNMDTRTRHLKVSNCPNNSYALANVAAVSPNDFPNNIYIIIDNLFVFTTRHSNDIPPGTIGFNGNQRTWGGWSLNQDVQAKAFDLFKYSGKQSYLGSIDIDISFRARGKAVSTVFDQDELAKQFVRCYESQIFSPTQYLIMEFQGHFFDLKIRNVQAIDLGDIEPTSAVATGIETKGILTKQTQINFFKGRDGLVNLKSSNSLRPRSNAVIRPDFKFEDLGVGGLDKEFTKIFRRAFASRIFPPSVIEKLGISHVKGLLLYGPPGTGKTLIARKIGTMLNAKEPKIVNGPEILSKYVGSSEENIRNLFKDAEAEYRAKGEESSLHIIIFDELDSVFKQRGSRGDGTGVGDNVVNQLLAKMDGVDQLNNILVIGMTNRKDLIDSALLRPGRFEVQVEIHLPDEKGRLQIFDIQTKKMRENNMMSDDVNLAELAALTKNFSGAEIEGLVKSASSFAINKTVNIGKGATKLNTKDIAKLKVTREDFLNALNDVTPAFGISEEDLKTCVEGGMMLYSERVNSILKNGARYVRQVRESDKSRLVSLLIHGPAGSGKTALAAEIALKSGFPFIRLISPNELSGMSESAKIAYIDNTFRDAYKSPLNILVIDSLETLVDWVPIGPRFSNNILQMLKVALKRKPPQDRRLLIMTTTSAYSVLQQMDILSCFDNEIAVPNMTNLDELNNVMIESNFLDDAGRVKVINELSRSCPNFNVGIKKTLTNIETARHDEDPVNELVELMTQSA", "notes": "Hexamer in the y20S complex; heptamer or split hexamer with ATP and Mg2+; No TEV cleavage is described for the preparation used for y20S; also called wild-type Sec18; substrate-free Sec18; source: E. coli BL21(DE3), purified (Ni-NTA, SEC)"}, "B5": {"name": "Sec17 (natural protein, S. cerevisiae, UniProt P32602 1-292, looked up)", "chain": "MSDPVELLKRAEKKGVPSSGFMKLFSGSDSYKFEEAADLCVQAATIYRLRKELNLAGDSFLKAADYQKKAGNEDEAGNTYVEAYKCFKSGGNSVNAVDSLENAIQIFTHRGQFRRGANFKFELGEILENDLHDYAKAIDCYELAGEWYAQDQSVALSNKCFIKCADLKALDGQYIEASDIYSKLIKSSMGNRLSQWSLKDYFLKKGLCQLAATDAVAAARTLQEGQSEDPNFADSRESNFLKSLIDAVNEGDSEQLSEHCKEFDNFMRLDKWKITILNKIKESIQQQEDDLL", "notes": "also called Sec17/α-SNAP; adaptor Sec17; source: E. coli BL21(DE3), purified (Ni-NTA, TEV, MonoQ, SEC); not shown: His10, N-terminal, cleaved"}, "B6": {"name": "NSF (N-ethylmaleimide-sensitive factor) (enzyme, C. griseus)", "chain": "MAGRSMQAARCPTDELSLSNCAVVSEKDYQSGQHVIVRTSPNHKYIFTLRTHPSVVPGSVAFSLPQRKWAGLSIGQEIEVALYSFDKAKQCIGTMTIEIDFLQKKNIDSNPYDTDKMAAEFIQQFNNQAFSVGQQLVFSFNDKLFGLLVKDIEAMDPSILKGEPASGKRQKIEVGLVVGNSQVAFEKAENSSLNLIGKAKTKENRQSIINPDWNFEKMGIGGLDKEFSDIFRRAFASRVFPPEIVEQMGCKHVKGILLYGPPGCGKTLLARQIGKMLNAREPKVVNGPEILNKYVGESEANIRKLFADAEEEQRRLGANSGLHIIIFDEIDAICKQRGSMAGSTGVHDTVVNQLLSKIDGVEQLNNILVIGMTNRPDLIDEALLRPGRLEVKMEIGLPDEKGRLQILHIHTARMRGHQLLSADVDIKELAVETKNFSGAELEGLVRAAQSTAMNRHIKASTKVEVDMEKAESLQVTRGDFLASLENDIKPAFGTNQEDYASYIMNGIIKWGDPVTRVLDDGELLVQQTKNSDRTPLVSVLLEGPPHSGKTALAAKIAEESNFPFIKICSPDKMIGFSETAKCQAMKKIFDDAYKSQLSCVVVDDIERLLDYVPIGPRFSNLVLQALLVLLKKAPPQGRKLLIIGTTSRKDVLQEMEMLNAFSTTIHVPNIATGEQLLEALELLGNFKDKERTTIAQQVKGKKVWIGIKKLLMLIEMSLQMDPEYRVRKFLALLREEGASPLDFD", "notes": "Heptamer (class 1) or hexamer (classes 2-4) with ATP and Mg2+; also called substrate-free NSF; high-purity NSF"}}, "key": {"Sso1 (1–265)": {"target": "B3", "experiment": "cryo-EM structure; y20S complex in the nonhydrolyzing condition: preformed ySNARE complex + Sec17 + EDTA-quenched Sec18 (Sec18:SNARE:Sec17 1:1.67:10) in 50 mM Tris, 150 mM NaCl, 1 mM TCEP, 1 mM ATP, 1 mM EDTA pH 8, Superose 6; eight 3D classes", "details": "both partners purified"}, "Sec9 (401–651)": {"target": "B2", "experiment": "cryo-EM structure; y20S complex in the nonhydrolyzing condition: preformed ySNARE complex + Sec17 + EDTA-quenched Sec18 (Sec18:SNARE:Sec17 1:1.67:10) in 50 mM Tris, 150 mM NaCl, 1 mM TCEP, 1 mM ATP, 1 mM EDTA pH 8, Superose 6; eight 3D classes", "details": "both partners purified"}, "[1]": {"target": "B4", "experiment": "cryo-EM structure; y20S complex in the hydrolyzing condition: as nonhydrolyzing, excess MgCl2 added on the grid, 7 s before vitrification; classes 1-4", "details": "both partners purified"}, "[2]": {"target": "the molecule itself", "experiment": "cryo-EM structure; y20S complex in the hydrolyzing condition: as nonhydrolyzing, excess MgCl2 added on the grid, 7 s before vitrification; classes 1-4"}, "[3]": {"target": "the molecule itself", "experiment": "cryo-EM structure; y20S complex in the nonhydrolyzing condition: preformed ySNARE complex + Sec17 + EDTA-quenched Sec18 (Sec18:SNARE:Sec17 1:1.67:10) in 50 mM Tris, 150 mM NaCl, 1 mM TCEP, 1 mM ATP, 1 mM EDTA pH 8, Superose 6; eight 3D classes"}, "[4]": {"target": "T1, yeast exocytic SNARE complex Sso1–Sec9–Snc1 (S. cerevisiae, UniProt P32867 1-265; P40357 401-651; P31109 1-93)", "T1 construct": "Sso1, S. cerevisiae, residues 1-265; as m4; Sec9, S. cerevisiae, residues 401-651; as m5; Snc1, S. cerevisiae, residues 1-93; as m6; also called ySNARE complex; yeast exocytic complex; source: E. coli BL21(DE3), each SNARE purified, mixed 1:1:1 in 6 M GdHCl, dialysed, purified (MonoQ); not shown: His6, N-terminal, cleaved; copies: 1 + 1 + 1", "T1 sequence (looked up) 1": "B3 chain", "T1 sequence (looked up) 2": "B2 chain", "T1 sequence (looked up) 3": "B1 chain", "experiment": "cryo-EM structure; y20S complex in the nonhydrolyzing condition: preformed ySNARE complex + Sec17 + EDTA-quenched Sec18 (Sec18:SNARE:Sec17 1:1.67:10) in 50 mM Tris, 150 mM NaCl, 1 mM TCEP, 1 mM ATP, 1 mM EDTA pH 8, Superose 6; eight 3D classes", "details": "both partners purified"}, "[5]": {"target": "the molecule itself", "experiment": "cryo-EM structure; substrate-free NSF in the hydrolyzing condition: buffer with ATP and 1 mM MgCl2 instead of EDTA, final SEC; four classes, 3DVA of class 3"}}}
{"binder": "B1", "values": [{"measurement": "binding result", "setting": "Sso1 (1–265)", "result": "binds"}, {"measurement": "binding result", "setting": "Sec9 (401–651)", "result": "binds"}]}
{"binder": "B2", "values": [{"measurement": "binding result", "setting": "Sso1 (1–265)", "result": "binds"}]}
{"binder": "B3", "values": [{"measurement": "binding result", "setting": "[1]", "result": "binds"}]}
{"binder": "B4", "values": [{"measurement": "stoichiometry N", "setting": "[2]", "result": 7}, {"measurement": "stoichiometry N", "setting": "[3]", "result": 6}]}
{"binder": "B5", "values": [{"measurement": "binding result", "setting": "[1]", "result": "binds"}, {"measurement": "binding result", "setting": "[4]", "result": "binds"}]}
{"binder": "B6", "values": [{"measurement": "stoichiometry N", "setting": "[5]", "result": 7}]}
